Assay results as given in the RNAGym collection of RNA variant scans (doi:10.7554/elife.90254).

B1: LINE1-full (parent)
chain: UACGUAGGUGGUUUUCCCCUGAUAGUGCUAAGGGGGCCUGGAAGUUUGGACUGGGCAGAGCUCAACACAGCGUGGCAAAGUGGCUGUGGCUAGACUGCCUCUCUGGAUUCCUCGUCACUCAGCAGGGCAUCUCUGAGAGAAAUGCC

Variants of: B1
Experiment: self-cleavage, relative activity (ratio to wild type); higher = more cleavage; in vitro, sequencing; the parent is a self-cleaving ribozyme
UACGUAGGUGGUUUUCCCCUGAUAAUGCUAAGGGGGCCUGGAAGUUUGGACUGGGCAGAGCUCGACACAGCGUGGCAAAGUGGCUGUGGCUAGACUGCCUCUCUGGAUUCCUCGUCACUCAGCAGGGCAUCUCUGAGAGAAAUGCC [G25A A64G] showed a self-cleavage of 0.27.
In the case of UACGUAGGAGGUUUUCCCCUGAUAGUGCUAAGGGGGCCUGGAAGUUUGGACUGGGCAGAGCUCAACACAGCGUGGCAAAGUGGCUGUGGCUAGUCUGCCUCUCUGGAUUCCUCGUCACUCAGCAGGGCAUCUCUGAGAGAAAUGCC [U9A A94U], the self-cleavage is reported as 0.39.
UACGAAGGUGGUUUUCCCCUGAUAGUGCUAAGGGGGCCUGGAAGUUUGGACUGGGCAGAGCUCAACACAGCGUGGCGAAGUGGCUGUGGCUAGACUGCCUCUCUGGAUUCCUCGUCACUCAGCAGGGCAUCUCUGAGAGAAAUGCC [U5A A77G] showed a self-cleavage of 2.07.
For UACGUAGGUGGUUUUCCCCUGAUAGUGUUAAGGGGGCCUGGAAGUUUGGACUGGGCAGAGCUCAACACAGCGUGGCAAAGUGGCUGUGGCUAGACUGCCUCUCUGGAUUCCUCGUCACUCAGCAGGGCAUCUCUGAGUGAAAUGCC [C28U A138U], the self-cleavage was 0.9.
For UACGUAGGUGGUUUUCCCCUGAUAGUGCUAAGGGGGCCUGGAAGUUUGGACUGGGCAGAGCUCAACACAGCGUGGCAAAGUGGCUGUGGCUAGACUGCCACUCUGGAUUCCUCGUCACUCAGCUGGGCAUCUCUGAGAGAAAUGCC [U100A A124U], the self-cleavage was 0.88.
With UACGUAGGUGGUUUUCCCCUGAUAGUGCUAAGGGGGCCUGGAAGUUUGGACUGGGCAGAGCUCAACACAGCGUGGCAAAGUGGCUGUAGCUAGACUGCCUCUCUGGAUUCCUCGUCACUCGGCAGGGCAUCUCUGAGAGAAAUGCC [G88A A121G] the self-cleavage was 0.06.
Variant GACGUAGGUGGUUUUCCCCUGAUAGUGCUAAGGGGGCCUGGAAGUUUGGACUGGGCAGAGCUCGACACAGCGUGGCAAAGUGGCUGUGGCUAGACUGCCUCUCUGGAUUCCUCGUCACUCAGCAGGGCAUCUCUGAGAGAAAUGCC [U1G A64G] has a self-cleavage of 0.46.
UACGUAGGUGGUUUUCCCCUGAUAGUGCUAAGGGGGCCUGGAAGUUUGGACUGGGCAGAGCUCAACACAGCGCGGCAAAGUGGCUGUGGCUAGACUGCCUCUCUGGAUUCCUCGUCUCUCAGCAGGGCAUCUCUGAGAGAAAUGCC [U73C A117U] gave a self-cleavage of 2.34.
For UACGUAGGUGGUUUUCCCCUGAUAGUGCUAAGGGGGCCUGGAAGUUUGGACUGGGCAGAGCUCAACACAGCGUGGCAAAGUGGCUGCGGCUAGACUGCCUCUCUGGAUUCCUCGUCCCUCAGCAGGGCAUCUCUGAGAGAAAUGCC [U87C A117C], the self-cleavage was 0.
In the case of UACGUAGGUGGUAUUCCCCUGAUAGUGCUAAGGGGGCCUGGAAGUUUGGACUGGGCAGAGCUCAACACAGCGUGGCAAAGUGGCUGUGGCUAGACUGCCUCUCUGGAUUCCUCGUCACUCAGCGGGGCAUCUCUGAGAGAAAUGCC [U13A A124G], the self-cleavage is reported as 0.97.
With UACGUAGGUGGUUUUCCCCUGAUAGUGCUAAGGGGGCCUGGACGGUUGGACUGGGCAGAGCUCAACACAGCGUGGCAAAGUGGCUGUGGCUAGACUGCCUCUCUGGAUUCCUCGUCACUCAGCAGGGCAUCUCUGAGAGAAAUGCC [A43C U45G] the self-cleavage was 0.66.
UACGUAGGUGGUUUUCCCCUGAUAGUGCUAAGGGGGCCUGGAAGUUUGGACUGGGCAGAACUCAACACAGCGUGGCAAAGAGGCUGUGGCUAGACUGCCUCUCUGGAUUCCUCGUCACUCAGCAGGGCAUCUCUGAGAGAAAUGCC [G60A U81A] gave a self-cleavage of 0.02.
Variant UACGUAGGUGGUUUUCCCCUGAUAGUGCUAAGGGGGCCUGGAAGUUUGGACUGGGCAGGGCUCAACACAGCGUGGCAAAGUGGCUGUGGCUAGACUGCCUCUCUGGAUUCCUCGUCACUCAGCAGGGCAUCUCUGAGAGAAGUGCC [A59G A142G] has a self-cleavage of 0.07.
For UACGUAGGUGGGUUUCCCCUGAUAGUGCUAAGGGGGCCUGGAAGUUUGGACUGGGCUGAGCUCAACACAGCGUGGCAAAGUGGCUGUGGCUAGACUGCCUCUCUGGAUUCCUCGUCACUCAGCAGGGCAUCUCUGAGAGAAAUGCC [U12G A57U], the self-cleavage was 0.17.
For UACGUAGGUGGUUUUCCCCUGAUAGUGCUAAGGGGGCCUGGAAGUUUGGACUGGGCAGAGCUCAACACAGCGUGGCAAAGUGGCUGUGGCUAGACUGCCACUCUGGAUUCCUCGUCACUCAGCAGGGCACCUCUGAGAGAAAUGCC [U100A U130C], the self-cleavage was 2.57.
Work on UACGUAGGUGGUUUUCCCCUGAUAGUGCUAAGGGGGCCUGGAAGUUUGGACUGGGCAGAGCUCAACACAGCGUGGCAAAGUGGCUGUGGCUAGACUGCCUCUCUGGAUUCCCCGUCACUCAGCAGGGCAUCUCUGAGAGAAAAGCC [U112C U143A] yielded a self-cleavage of 1.59.
UACGUGGGUGGUUUUCCCCUGAUAGUGCUAAGGGGGACUGGAAGUUUGGACUGGGCAGAGCUCAACACAGCGUGGCAAAGUGGCUGUGGCUAGACUGCCUCUCUGGAUUCCUCGUCACUCAGCAGGGCAUCUCUGAGAGAAAUGCC [A6G C37A] showed a self-cleavage of 0.76.
UACGUAGGUGGUUUUCCCCUGAAAGUGCUAAGGGGGCCUGGAAGAUUGGACUGGGCAGAGCUCAACACAGCGUGGCAAAGUGGCUGUGGCUAGACUGCCUCUCUGGAUUCCUCGUCACUCAGCAGGGCAUCUCUGAGAGAAAUGCC [U23A U45A] showed a self-cleavage of 1.28.
Work on UACGUAGGUGGUUUUCCCCUGAUAGUGCUAAGGGGGCCUGGAAGUUUGGACUGGGCAGAGCUCAACACAGCGUGGCAAAGUGGCUGCGGCUAGACUACCUCUCUGGAUUCCUCGUCACUCAGCAGGGCAUCUCUGAGAGAAAUGCC [U87C G97A] yielded a self-cleavage of 0.12.
In the case of UACGUAGGUGGUUUUCCCCUGAUAGUGCUAAGGGGGCCUGGAAGUUUGGACUGGGCAGAGCUCAACGCAGCGUGGCAAAGUGGCUGUGGCUAGACUGCAUCUCUGGAUUCCUCGUCACUCAGCAGGGCAUCUCUGAGAGAAAUGCC [A67G C99A], the self-cleavage is reported as 0.17.
UACGUAGGUGGUUUUCCCCUGAUAGUGCUAAGGGGGCCUGGAAGUUUGGACUGGGCAGGGCUCAACACAGCGUGGCAAAGUGGCUGUGGCUAGACUGCCUCUCUGGAUUCCUCCUCACUCAGCAGGGCAUCUCUGAGAGAAAUGCC [A59G G114C] gave a self-cleavage of 0.03.
For UACGUAGGGGGAUUUCCCCUGAUAGUGCUAAGGGGGCCUGGAAGUUUGGACUGGGCAGAGCUCAACACAGCGUGGCAAAGUGGCUGUGGCUAGACUGCCUCUCUGGAUUCCUCGUCACUCAGCAGGGCAUCUCUGAGAGAAAUGCC [U9G U12A], the self-cleavage was 0.16.
For UACGUAGGUGUUUUUCCCCUGAUAGUGCUAAGGGGGCCUGGAAGUUUGGACUGGGCAGAGCUCAACACAGCGUGGCAAAGUGGCUGUGGCUAGACUGCCUCUCUGGAUUCCUCGUCACUCAGCAGGGCGUCUCUGAGAGAAAUGCC [G11U A129G], the self-cleavage was 0.83.
In the case of UACGUAGGUGGUUUUCCCCUGAUAGUGCUAAGGGGGCCUGGAAGUUUGGACUGGGCAGAGCUCAACACAGCGUGGCAAAGUGGCUGUGGCUAGACUGCCUCUCUGGAUUCCUCGUCACUCAGCAGGGCUUCUCGGAGAGAAAUGCC [A129U U134G], the self-cleavage is reported as 1.53.
Variant UACGUAGGUGGCUUUCCCCUGAUAGUGCUAAGGGGGCCUGGAAGUUUGGACUGGGCAGAGCUCAACACAGCGUGGCAAAGUGGCUGUGGCUAGACUGCCUCUCUGGAUUCCUCGUCACUCAGCAGGGCAUCUCCGAGAGAAAUGCC [U12C U134C] has a self-cleavage of 1.3.
For UACGUAGGUGGUUUACCCCUGAUAGUGCUAAGGGGGCCUGGAAGUUUGGACUGGGCAGAGCUCAACACAGCGUGGCAAAGUGGCUGUGGCUAGACUGCCUCUAUGGAUUCCUCGUCACUCAGCAGGGCAUCUCUGAGAGAAAUGCC [U15A C103A], the self-cleavage was 1.27.
Variant UACGUAGGUGGUUUUCCCCUGAUAGUGCUAAGGGGGCCUGGAAGUUUGGACUGGGCAGAGCUCAACACAGCGUGGCAAAGUGGCUGUGGCUAGGCUGCCUCUCUGGAUUUCUCGUCACUCAGCAGGGCAUCUCUGAGAGAAAUGCC [A94G C110U] has a self-cleavage of 0.32.
In the case of UACGUAGGUGGUUUUCCCCUUAUAGUGCUAAGGGGGCCUGGAAGUUUGGACUGGGCAGAGCUCACCACAGCGUGGCAAAGUGGCUGUGGCUAGACUGCCUCUCUGGAUUCCUCGUCACUCAGCAGGGCAUCUCUGAGAGAAAUGCC [G21U A65C], the self-cleavage is reported as 0.
Variant UACGUAGGUGGUUUUCCCCUGAUAGUGCUAAGGGGGCCUGGAAGUUUGGACUGGGCAGAGCUCAACACAGCGCGGCAAAGUGGCUGUGGCUAGACUGCCUCUCUGGACUCCUCGUCACUCAGCAGGGCAUCUCUGAGAGAAAUGCC [U73C U108C] has a self-cleavage of 0.95.
Work on UACGUAGGUGGUCUUCCCCUGAUAGUGCUAAGGGGGCCUGGAAGUUUGGACUGGGCAGAGCUCAACACAGCGUGGCAAAGUGGCUGUGGCUAGCCUGCCUCUCUGGAUUCCUCGUCACUCAGCAGGGCAUCUCUGAGAGAAAUGCC [U13C A94C] yielded a self-cleavage of 0.11.
UACGUAGGUGGUUUUCCCCUGAUAGUGCAAAGGGGGCCUGGAAGUUUGGACUGGGCAGAGCUCAACACAGCGUGGCAAAGUGGCUGUGGCUAGACUGCCUCUCUGGACUCCUCGUCACUCAGCAGGGCAUCUCUGAGAGAAAUGCC [U29A U108C] gave a self-cleavage of 2.61.
UACGUAGGUGGUCUUCCCCUGAUAGUGCUAAGGGGGCCUGGAAGUUUGGACUGGGCAGAGCUCAACUCAGCGUGGCAAAGUGGCUGUGGCUAGACUGCCUCUCUGGAUUCCUCGUCACUCAGCAGGGCAUCUCUGAGAGAAAUGCC [U13C A67U] showed a self-cleavage of 0.16.
Variant UACGUAGGUGGUUUUCCCCUGAUAGUGCUAAGGGGGCCUGGAAGUUGGGACUGGGCAGAGCUCAACACAGCGUGGCAAAGUGGCUGUGGCUAGACUGCCACUCUGGAUUCCUCGUCACUCAGCAGGGCAUCUCUGAGAGAAAUGCC [U47G U100A] has a self-cleavage of 0.42.
UACGUAGGUGGUUUUCCCCUGAUAGUGCUAAGGGGGCCUGGAAGUUUGGUCUGGGCAGAGCUCAACACAGCGUGGCAAAGUGGCUGUGGCUAGGCUGCCUCUCUGGAUUCCUCGUCACUCAGCAGGGCAUCUCUGAGAGAAAUGCC [A50U A94G] gave a self-cleavage of 0.29.
Work on UACGUAGGUGGUUUUCCCCUGAUAGUGCUAAGGGGGCCUGGAAUUUUGGACUGGGCAGAGCUCAACACAGCGUGGCAAAGUGGCUGUGGCUAGACUGCCUCUCUGGGUUCCUCGUCACUCAGCAGGGCAUCUCUGAGAGAAAUGCC [G44U A107G] yielded a self-cleavage of 1.7.
For UACGUAGGAGGUUUUCCCCUGAUAGUGCUAAGGGGGCCUGGAGGUUUGGACUGGGCAGAGCUCAACACAGCGUGGCAAAGUGGCUGUGGCUAGACUGCCUCUCUGGAUUCCUCGUCACUCAGCAGGGCAUCUCUGAGAGAAAUGCC [U9A A43G], the self-cleavage was 1.1.
Variant UACGUAGGUGGUUUUCCCCUGAUAGUGCUAAGGGGGCCUGGAAGUUAGGACUGGGCAGAGCUCAACACAGCAUGGCAAAGUGGCUGUGGCUAGACUGCCUCUCUGGAUUCCUCGUCACUCAGCAGGGCAUCUCUGAGAGAAAUGCC [U47A G72A] has a self-cleavage of 0.95.
In the case of UACGUAGGUGGUUUUCCCCUGAUAGUGCUAAGGGGGCCUGGAAGUUUGGACUGGGCAGAGCUCAACACAGCAUGGCAAAGUGGCUGUGGCUAGACUGCCUCUCAGGAUUCCUCGUCACUCAGCAGGGCAUCUCUGAGAGAAAUGCC [G72A U104A], the self-cleavage is reported as 0.93.
In the case of UACGCAGGUGGUUUUCCCCUGAUAGUGCUAAGGGGGCCUGGAAGCUUGGACUGGGCAGAGCUCAACACAGCGUGGCAAAGUGGCUGUGGCUAGACUGCCUCUCUGGAUUCCUCGUCACUCAGCAGGGCAUCUCUGAGAGAAAUGCC [U5C U45C], the self-cleavage is reported as 1.32.
